Residue numbers refer to the chain shown, from its start.
B1: anti-TNF-α antibody Ab4 (antibody, V domains shown)
VH: QSVEESGGRLVTPGTPLTLTCTVSGLSLSTETINWVRQAPGKGLEWIGYIDSSGGTGYANWARGRFTISKTSTTVDLKITSPTTGDTATYFCARGTITTGMNI
VL: MDTRAPTQLLGLLLLWLTGATFAAVLTQTPSPVSAVVGGTVSISCQSSKRVVNSVALSWYQQKPGRSPKLLIYFASKLASGVPSRFKGSGSGTQFTLAISDVQCDDAATYYCAGHYTDSGDDA
B2: anti-TNF-α antibody Ab12 (antibody, V domains shown)
VH: QSVEESGGRLVTPGTPLTLTCTVSGFSLSHYAMGWVRQAPGKGLEWIGIISSNGVTYYATWASGRFTISKTSTTVDLKITSPTTEDTATYFCARGDDTSIIYYIYAFDL
VL: ALVMTQTPSPVSAAVGGTVTISCQSSESVVFNNRLSWYQQKPGQPPKLLIYWASTLASGVPSRFKGSGSGTQFTLTISGVECDDAATYYCAGYKSYSNDDFA
B3: anti-TNF-α antibody Ab1 (antibody, V domains shown)
VH: QSVEESGGRLVTPGTPLTLTCTVSGFSLSTYNMGWVRQAPGKGLEYIGYVLGSGITYYASWAKGRFTISKTSTTVDLEITSPTTEDTATYFCARDAGGRASL
VL: ADIVMTQTPASVEAAVGGTVTIKCQASQNIRSWLAWYQQKPGQPPKLLIYGASTLASGVPSRFQGSGSGTEYTLTIIDLDCADAATYYCQSNYGSNDNSYGNG
notes: Rabbit-derived; they start with the leader peptide and end at CDR3 (no framework 4); no cleavage site is stated for this antibody
B4: anti-TNF-α antibody Ab7 (antibody, V domains shown)
VH: QSVEESGGRLVTPGTPLTLTCTVSGFSLSSDNMGWVRQAPGKGLEYIGYITYGGFTYYATWAKGRFTISKTSTTVDLKMTSPTTEDTATYFCAREAGGRANV
VL: B3 VL with K23N, N29S, R31V, Q64K, I77S, D80E, D97S, N98H, Y100F, G103T
B5: anti-TNF-α antibody Ab15 (antibody, V domains shown)
VH: QSVEESGGRLVSPGTPLTLTCTVSGIDLSSYGMGWVRQAPGKGLEYIGYMIASGITYYAAWAKGRFTISKTSSTTVDLKITSPTTEDTATYFCARNYYGMDP
VL: ADIVMTQTPASVSEPVGGTVTIKCQASQSIYSSFSWYQQIPGQRPKLLIYYASTLASGVPSRFSGSGSGTDFTLTISDLECADAATYYCQSNHGSNGDSFGNA
B6: anti-TNF-α antibody Ab6 (antibody, V domains shown)
VH: METGLRWLLLVAVFKGVQCQSVEESGGRLVTPGTPLTLTCTVSGFSLSSNTISWVRQAPGKGLEWIGYIWRGVSTYYATWAKGRFTISKTSSTTVDLKITGPTTEDTATYFCARDAGDGGGYSLDL
VL: MDTRAPTQLLGLLLLWLPDARCAYDMTQTPASVEVAGGGTVTIKCQASQSIANRLAWYQQKPGQPPKLLIYYASTLASGVPSRFSGSGSGTEFTLTISGVQCDDAATYYCQQTYSDNNVDNA
B7: anti-TNF-α antibody Ab9 (antibody, V domains shown)
VH: QSVEESGGRLVTPGTPLTLTCTVSGFSLSIYWMTWVRQAPGKGLEWIGVISTDGSAYYATWAKGRFTISKTSSTTVDLRITSPTTEDTATYFCAGGGGMDP
VL: AQVLTQTPSSVSAAVGGTVTVSCQSSQNVYNNNDFVWFQQKPGQPPKRLIYWASTLASGVPSRFKGSGSGTQFTLTINDLECDDAATYYCAGAYITELRT
B8: anti-TNF-α antibody Ab5 (antibody, V domains shown)
VH: B7 VH with T22A, I30V, V49T, S55I, A56T, Y57V, T75A, R79K, I80L
VL: MDTRAPTQLLGLLLLWLPGATLAQVVTQTPASVSAAVGGTVTISCQSSQNVYNNNDLVWFQQKPGQPPKRLVYWASTLASGVSSRFRGSGSGTQFILTISDLQCDDAATYYCAGAYDSEIRA
B9: anti-TNF-α antibody Ab10 (antibody, V domains shown)
VH: B7 VH with K42R, S55T, A56T, T60N, T71A
VL: B7 VL with P8A, V21I, N28S, V36I, P61S, T87V, I95D, T96S, L98V, T100A
B10: anti-TNF-α antibody Ab11 (antibody, V domains shown)
VH: B7 VH with S51A, T52S, A56T, T60S, T71A, R79K, T81A, T85I
VL: AQVMTQTPASVSAAVGGTVTISCQSSESVYNNNDLIWFRQKPGQPPKRLIYWASQLASGVSSRFKGSGSGTQFTLTINDLECDDAATYYCAGAYDSEIRA
B11: anti-TNF-α antibody Ab13 (antibody, V domains shown)
VH: QSVEESGGRLVTPGTPLTLTCTVSGIDLSSYAMGWVRQAPGKGLEYIGYILSSGITYYASWARGRFTISKTSSTTVDLKMTSLTTEDTATYFCARNGNYNSGTDI
VL: ADIVMTQTPASVSEPVGGTVTIKCQASQNIYSTLAWYQQKPGQPPKLLIYLASTLASGVPSRFKGSGSGTQFTLTISDLECADAATYYCQTSHGSNSDSFGYA
B12: anti-TNF-α antibody Ab18 (antibody, V domains shown)
VH: B11 VH with A94V, S101V
VL: B11 VL with A56E, Q71E, D98E
B13: anti-TNF-α antibody Ab17 (antibody, V domains shown)
VH: B11 VH with V3L, T15G, P16S, I50V, S52G, A94V, G97D
VL: B11 VL with N29S, Y50S, S92N
B14: anti-TNF-α antibody Ab14 (antibody, V domains shown)
VH: B11 VH with I26F, D27S, L51G, A59T, T71P
VL: B11 VL with S92N
B15: anti-TNF-α antibody Ab2 (antibody, V domains shown)
VH: QSVEESGGRLVTPGTPLTLTCSVSGFSLNNYVMGWVRQAPGKGLEFIGYIAFGIGPYYASWAKGRFTISSTSSTTVDLKMTSLTPEDTATYFCARGDYSGNDI
VL: ADIVMTQTPSSVSEPVRGTVTIKCQASQNIYSYLSWYQQSPGQPPKLLIYKASTLASGVPSRFKGSGSGTDFTLTISDLECADAATYYCQSNYGSDSDSFGNA
B16: anti-TNF-α antibody Ab16 (antibody, V domains shown)
VH: QSLEESGGRLVKPDETLTITCTVSGIDLNNYNMGWVRQAPGKGLEYIGYILGSGITYYATWAKGRFTISKTSSTTVDLKMTSLTTEDTATYFCAGSIYYRGYGMDP
VL: B5 VL with S29T, F34L, I40K, Y51A, S64K, G97S, F100Y
B17: anti-TNF-α antibody Ab8 (antibody, V domains shown)
VH: B15 VH with S22T, V23A, N29S, S60T, T67S, K79T, D102N
VL: B15 VL with R17G, K23M, S40K, K64A, D96N
B18: anti-TNF-α antibody Ab19 (antibody, V domains shown)
VH: B15 VH with V32I, I68S, Y98V
VL: B15 VL with Q38R, K46N, D96N
B19: anti-TNF-α antibody Ab3 (antibody, V domains shown)
VH: QSVEESGGRLVTPGTPLTLTCKVSGFSLSSYDMTWVRQAPGKGLEWIGYIWNDGSTAYASWATGRFTISKTSTTVDLKIASPTTEDTATYFCARGPVFATTLGYYFTI
VL: MDTRAPTQLLGLLLLWLPGSTFAIKVTQTPASVSAAVGGTVSINCQASEDIESYLAWYQQKPGQPPKLLLYDASALASGVPSRFKGSGSGTEYTLTISGVECADAATYYCQQGYSYSNVDNS

How the values were obtained:
[1] = biological target: T1, Tumor Necrosis Factor-alpha (TNF-α), R&D systems 210-TA / 210-TA-CF (human, UniProt P01375 77-233); assay: biolayer interferometry (Octet QK); biotinylated TNF-α on streptavidin sensor, antibody 8 nM to 1 nM
T1 construct: Bought protein; also called huTNF-α
T1 sequence (P01375 77-233 limits assumed): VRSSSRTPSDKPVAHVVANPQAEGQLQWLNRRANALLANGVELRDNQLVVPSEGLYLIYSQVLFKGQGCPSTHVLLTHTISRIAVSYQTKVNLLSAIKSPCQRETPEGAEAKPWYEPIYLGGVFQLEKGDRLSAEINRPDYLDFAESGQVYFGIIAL
Protocol: Binding kinetics of certain Anti-TNF-α antibodies referenced in this experiment were determined using biolayer Interferometry on an Octet QK instrument (ForteBio, Menlo Park, Calif.). Biotinylated TNF-α (R&D systems part number 210-TA, biotinylated using Pierce EZ-link sulfo-NHS-LC-LC-biotin product number 21338 according to manufacturer's protocols) was initially bound onto a streptavidin coated biosensor (ForteBio, Menlo Park, Calif. part number 18-5006). TNF-α coated sensors were then incubated with the Anti-TNF-α antibodies at concentrations ranging from 8 nM to 1 nM. Binding was monitored as an increase in signal over a period of 900 seconds.
Sensors removed from the antibody dilutions and immediately incubated in diluent were monitored for a dissociation phase over an 1800 second time period. For these studies, all proteins were diluted using ForteBio's sample diluent buffer (ForteBio, Menlo Park, Calif. part number 18-5028). Analysis of Kinetic data was performed using ForteBio Software utilizing full dissociation modeling.

[2] = biological target: T1, Tumor Necrosis Factor-alpha (TNF-α), …; assay: OD versus antibody concentration, fitted sigmoid; the assay is not named for this figure (legend: binding affinity of the anti-TNF-α antibody Ab1); the unit is that of the concentration axis, none stands beside the number
[3] = biological target: T1, Tumor Necrosis Factor-alpha (TNF-α), …; assay: OD versus antibody concentration; the assay is not named for this figure (legend: binding affinity of the anti-TNF-α antibody Ab1)
[4] = biological target: T1, Tumor Necrosis Factor-alpha (TNF-α), …; assay: cell-based or functional assay

Row | Binder | Kd [1] [nM] | also measured
1 | B1 | 0.01 | –
2 | B2 | 0.01 to 0.025 | –
3 | B3 | 0.01 | EC50 [2]: 0.0461 µg/mL; EC50 (read off the curve) [3]: ~0.05 µg/mL; EC50 (read off the curve); OD versus antibody concentration (the assay is not named for this figure) [4]: ~0.0006 µg/mL
4 | B4 | 0.01 | –
5 | B5 | 0.01 | –
6 | B6 | 0.01 | –
7 | B7 | 0.025 to 0.05 | –
8 | B8 | 0.025 to 0.05 | –
9 | B9 | 0.015 to 0.03 | –
10 | B10 | 0.02 | –
11 | B11 | 0.01 to 0.05 | –
12 | B12 | 0.01 | –
13 | B13 | 0.01 | –
14 | B14 | 0.01 | –
15 | B15 | 0.01 | –
16 | B16 | 0.01 | –
17 | B17 | 0.01 | –
18 | B18 | 0.06 | –
19 | B19 | 0.02 to 0.04 | –

Reference: patent US20090022659A1 (ALDERBIO, published 2009)
